Measurements published in patent US20160200782A1 (MOERAE MATRIX, published 2016).

T1: IKKα(h) (human, UniProt O15111 1-745, limits assumed)
T1 sequence (looked up): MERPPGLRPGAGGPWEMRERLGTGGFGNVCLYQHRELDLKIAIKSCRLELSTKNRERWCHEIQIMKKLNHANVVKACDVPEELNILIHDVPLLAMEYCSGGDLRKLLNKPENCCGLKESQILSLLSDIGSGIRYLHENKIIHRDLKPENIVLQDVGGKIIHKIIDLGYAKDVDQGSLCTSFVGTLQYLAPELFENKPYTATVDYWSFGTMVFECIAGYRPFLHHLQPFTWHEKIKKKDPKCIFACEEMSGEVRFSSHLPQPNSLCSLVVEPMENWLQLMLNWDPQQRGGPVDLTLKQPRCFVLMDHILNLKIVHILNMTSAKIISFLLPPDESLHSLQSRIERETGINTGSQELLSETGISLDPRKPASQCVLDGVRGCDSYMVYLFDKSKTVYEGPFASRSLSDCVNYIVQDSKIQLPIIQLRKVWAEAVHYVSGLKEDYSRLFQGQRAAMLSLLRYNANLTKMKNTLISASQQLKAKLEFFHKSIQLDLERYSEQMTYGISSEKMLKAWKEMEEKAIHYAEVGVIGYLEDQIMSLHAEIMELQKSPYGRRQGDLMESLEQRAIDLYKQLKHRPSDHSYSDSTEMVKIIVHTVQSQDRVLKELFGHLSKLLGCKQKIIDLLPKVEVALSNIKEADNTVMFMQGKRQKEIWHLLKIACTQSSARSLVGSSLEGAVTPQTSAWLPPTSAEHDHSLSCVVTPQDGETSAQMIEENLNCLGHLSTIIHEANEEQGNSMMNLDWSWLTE

T2: TAO1(h) (human, UniProt Q7L7X3 1-320, limits assumed)
T2 sequence (looked up): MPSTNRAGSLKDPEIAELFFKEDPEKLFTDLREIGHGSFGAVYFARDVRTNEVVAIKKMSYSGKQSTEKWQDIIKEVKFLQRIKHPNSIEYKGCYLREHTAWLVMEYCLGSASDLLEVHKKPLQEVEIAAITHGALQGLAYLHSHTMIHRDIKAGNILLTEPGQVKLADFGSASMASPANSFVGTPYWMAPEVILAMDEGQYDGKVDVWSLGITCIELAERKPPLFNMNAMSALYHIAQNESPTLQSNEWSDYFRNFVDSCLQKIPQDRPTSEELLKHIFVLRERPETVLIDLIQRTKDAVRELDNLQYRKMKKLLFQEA

T3: ZAP-70(h) (human, UniProt P43403 1-619, limits assumed)
T3 sequence (looked up): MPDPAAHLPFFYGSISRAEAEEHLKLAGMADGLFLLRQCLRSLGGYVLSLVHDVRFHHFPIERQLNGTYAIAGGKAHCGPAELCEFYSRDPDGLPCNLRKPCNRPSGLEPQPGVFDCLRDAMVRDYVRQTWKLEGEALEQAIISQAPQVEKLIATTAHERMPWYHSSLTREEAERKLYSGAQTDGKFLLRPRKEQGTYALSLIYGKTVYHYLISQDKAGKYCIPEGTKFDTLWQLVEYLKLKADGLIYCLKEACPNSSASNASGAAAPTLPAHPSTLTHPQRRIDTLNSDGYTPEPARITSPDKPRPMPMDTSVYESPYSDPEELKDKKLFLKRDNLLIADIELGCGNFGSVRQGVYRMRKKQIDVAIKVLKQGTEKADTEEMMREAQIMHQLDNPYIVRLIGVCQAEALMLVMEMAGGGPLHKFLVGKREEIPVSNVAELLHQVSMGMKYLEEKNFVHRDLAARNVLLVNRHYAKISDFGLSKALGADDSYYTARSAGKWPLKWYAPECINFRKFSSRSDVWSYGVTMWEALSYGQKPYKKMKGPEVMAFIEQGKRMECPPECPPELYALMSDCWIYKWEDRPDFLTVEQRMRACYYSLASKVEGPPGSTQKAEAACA

T4: DYRK2(h) (human, UniProt Q92630 1-601, limits assumed)
T4 sequence (looked up): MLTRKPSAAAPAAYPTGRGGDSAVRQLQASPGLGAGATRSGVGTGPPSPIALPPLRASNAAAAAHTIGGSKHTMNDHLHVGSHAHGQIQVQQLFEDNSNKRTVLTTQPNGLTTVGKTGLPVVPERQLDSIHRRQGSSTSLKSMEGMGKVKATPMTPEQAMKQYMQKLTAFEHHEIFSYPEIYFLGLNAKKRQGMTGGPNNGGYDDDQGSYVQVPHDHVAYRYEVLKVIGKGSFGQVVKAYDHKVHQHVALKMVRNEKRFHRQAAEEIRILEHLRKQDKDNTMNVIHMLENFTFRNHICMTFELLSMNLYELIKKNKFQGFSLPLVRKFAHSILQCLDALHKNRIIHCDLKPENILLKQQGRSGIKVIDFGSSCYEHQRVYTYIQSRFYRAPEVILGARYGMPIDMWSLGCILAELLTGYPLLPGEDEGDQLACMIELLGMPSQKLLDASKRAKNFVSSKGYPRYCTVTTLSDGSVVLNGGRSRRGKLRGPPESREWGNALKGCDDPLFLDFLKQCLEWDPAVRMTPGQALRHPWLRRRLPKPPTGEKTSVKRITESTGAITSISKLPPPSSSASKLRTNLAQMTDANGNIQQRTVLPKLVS

B1: MMI-0400 (peptide)
peptide: KAFAKLAARLYRKALARQLGVAA
B2: MMI-0300 (peptide)
peptide: FAKLAARLYRKALARQLGVAA

Legend:
Test in all cases: cell-based or functional assay
[1] = molecular target: T1, IKKα(h)
[2] = molecular target: MAPK2(h) (human, UniProt P28482 1-360)
[3] = molecular target: Met(D1246N)(h) (human, UniProt P08581-2 974-1408, limits assumed)
[4] = molecular target: PKCβII(h) (human, UniProt P05771-2 1-673)
[5] = molecular target: PTK5(h) (human, UniProt P42685 1-505, limits assumed)
[6] = molecular target: T2, TAO1(h)
[7] = molecular target: BTK(h) (human, UniProt Q06187 1-659)
[8] = molecular target: T3, ZAP-70(h)
[9] = molecular target: CaMKI(h) (human, UniProt Q14012 1-370, limits assumed)
[10] = molecular target: c-RAF(h) (human, UniProt P04049 306-648, limits assumed)
[11] = molecular target: T4, DYRK2(h)
[12] = molecular target: ErbB4(h) (human, UniProt Q15303 676-1308, limits assumed)
[13] = molecular target: FGFR1(V561M)(h) (human, UniProt P11362 456-765, limits assumed)
Note: test concentration or dose not given here.

Chain of MAPK2(h) (P28482 whole entry): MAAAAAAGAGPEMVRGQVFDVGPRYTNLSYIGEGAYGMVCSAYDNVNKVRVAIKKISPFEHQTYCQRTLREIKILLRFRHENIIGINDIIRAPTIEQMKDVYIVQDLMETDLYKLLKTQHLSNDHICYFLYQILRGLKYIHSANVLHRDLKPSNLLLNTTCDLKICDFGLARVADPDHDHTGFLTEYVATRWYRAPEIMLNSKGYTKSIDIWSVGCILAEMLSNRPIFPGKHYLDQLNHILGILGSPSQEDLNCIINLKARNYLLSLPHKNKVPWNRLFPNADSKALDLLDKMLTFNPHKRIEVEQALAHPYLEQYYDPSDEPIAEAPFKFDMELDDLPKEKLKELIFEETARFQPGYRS
Chain of PTK5(h) (P42685 whole entry): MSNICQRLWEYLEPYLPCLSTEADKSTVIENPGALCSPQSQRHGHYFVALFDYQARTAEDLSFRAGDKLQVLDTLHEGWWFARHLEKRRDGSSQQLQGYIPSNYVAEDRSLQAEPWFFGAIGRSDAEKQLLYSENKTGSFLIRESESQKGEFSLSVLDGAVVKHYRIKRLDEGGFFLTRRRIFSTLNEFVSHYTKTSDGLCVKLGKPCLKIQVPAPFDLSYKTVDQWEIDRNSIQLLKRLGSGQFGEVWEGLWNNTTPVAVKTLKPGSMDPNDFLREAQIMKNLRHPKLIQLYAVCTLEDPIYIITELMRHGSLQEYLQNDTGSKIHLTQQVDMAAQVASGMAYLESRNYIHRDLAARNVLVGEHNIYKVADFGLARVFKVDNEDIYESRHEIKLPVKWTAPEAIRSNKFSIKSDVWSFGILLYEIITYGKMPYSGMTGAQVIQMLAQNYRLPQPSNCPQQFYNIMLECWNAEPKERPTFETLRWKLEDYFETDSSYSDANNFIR
Chain of FGFR1(V561M)(h) (P11362 456-765 V561M limits assumed): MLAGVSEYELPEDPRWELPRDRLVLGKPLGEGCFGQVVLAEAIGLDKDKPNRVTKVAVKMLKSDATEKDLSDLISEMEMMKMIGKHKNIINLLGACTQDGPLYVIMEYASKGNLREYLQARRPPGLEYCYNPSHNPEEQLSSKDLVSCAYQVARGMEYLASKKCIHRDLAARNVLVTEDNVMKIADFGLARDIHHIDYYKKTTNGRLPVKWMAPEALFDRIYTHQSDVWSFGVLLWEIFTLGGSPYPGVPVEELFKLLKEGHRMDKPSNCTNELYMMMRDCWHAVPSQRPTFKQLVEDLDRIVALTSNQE
Chain of PKCβII(h) (P05771 other isoform, or with tags, fused parts or gaps limits assumed): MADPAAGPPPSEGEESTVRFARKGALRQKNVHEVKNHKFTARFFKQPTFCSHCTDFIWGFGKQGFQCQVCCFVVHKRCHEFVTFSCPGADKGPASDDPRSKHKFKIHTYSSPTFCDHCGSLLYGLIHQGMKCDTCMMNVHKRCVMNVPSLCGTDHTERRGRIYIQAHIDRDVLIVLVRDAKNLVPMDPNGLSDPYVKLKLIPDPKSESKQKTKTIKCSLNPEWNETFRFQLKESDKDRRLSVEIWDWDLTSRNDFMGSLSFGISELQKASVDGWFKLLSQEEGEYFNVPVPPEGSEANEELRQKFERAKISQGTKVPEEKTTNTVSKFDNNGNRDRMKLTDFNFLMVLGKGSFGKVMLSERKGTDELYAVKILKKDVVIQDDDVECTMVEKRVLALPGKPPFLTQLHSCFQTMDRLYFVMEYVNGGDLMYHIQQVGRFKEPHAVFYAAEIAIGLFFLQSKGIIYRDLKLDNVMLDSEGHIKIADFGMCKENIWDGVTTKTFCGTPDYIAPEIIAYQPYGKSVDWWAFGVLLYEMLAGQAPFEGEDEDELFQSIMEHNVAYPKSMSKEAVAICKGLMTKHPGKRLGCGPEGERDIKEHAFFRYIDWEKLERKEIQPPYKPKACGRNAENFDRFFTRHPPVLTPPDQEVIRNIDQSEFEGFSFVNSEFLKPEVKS
Chain of ErbB4(h) (Q15303 676-1308 limits assumed): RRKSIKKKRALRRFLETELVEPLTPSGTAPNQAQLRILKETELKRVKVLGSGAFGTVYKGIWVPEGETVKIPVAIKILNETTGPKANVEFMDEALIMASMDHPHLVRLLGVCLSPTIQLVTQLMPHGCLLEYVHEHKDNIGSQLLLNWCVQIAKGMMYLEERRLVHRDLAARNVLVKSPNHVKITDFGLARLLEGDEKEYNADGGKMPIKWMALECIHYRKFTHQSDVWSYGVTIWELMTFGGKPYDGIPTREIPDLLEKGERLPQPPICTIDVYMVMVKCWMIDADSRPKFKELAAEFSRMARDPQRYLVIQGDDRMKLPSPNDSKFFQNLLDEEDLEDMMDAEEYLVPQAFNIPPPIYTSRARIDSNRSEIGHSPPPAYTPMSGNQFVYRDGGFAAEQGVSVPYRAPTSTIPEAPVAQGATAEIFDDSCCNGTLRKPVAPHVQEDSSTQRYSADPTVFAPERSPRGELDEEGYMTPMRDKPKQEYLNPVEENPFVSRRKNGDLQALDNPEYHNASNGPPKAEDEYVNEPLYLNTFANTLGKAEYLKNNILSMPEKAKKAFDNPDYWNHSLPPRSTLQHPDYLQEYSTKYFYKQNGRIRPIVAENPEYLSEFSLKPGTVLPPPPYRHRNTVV
Chain of CaMKI(h) (Q14012 whole entry): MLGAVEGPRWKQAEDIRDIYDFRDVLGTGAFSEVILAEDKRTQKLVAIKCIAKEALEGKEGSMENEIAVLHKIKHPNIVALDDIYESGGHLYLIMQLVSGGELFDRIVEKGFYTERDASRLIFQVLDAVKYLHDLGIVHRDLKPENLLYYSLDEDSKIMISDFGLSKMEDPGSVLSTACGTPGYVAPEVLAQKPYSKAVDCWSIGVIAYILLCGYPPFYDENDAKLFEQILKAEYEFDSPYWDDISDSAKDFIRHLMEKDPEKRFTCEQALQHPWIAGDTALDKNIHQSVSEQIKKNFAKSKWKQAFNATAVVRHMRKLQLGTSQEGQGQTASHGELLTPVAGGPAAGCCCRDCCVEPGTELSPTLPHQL
Chain of BTK(h) (Q06187 whole entry): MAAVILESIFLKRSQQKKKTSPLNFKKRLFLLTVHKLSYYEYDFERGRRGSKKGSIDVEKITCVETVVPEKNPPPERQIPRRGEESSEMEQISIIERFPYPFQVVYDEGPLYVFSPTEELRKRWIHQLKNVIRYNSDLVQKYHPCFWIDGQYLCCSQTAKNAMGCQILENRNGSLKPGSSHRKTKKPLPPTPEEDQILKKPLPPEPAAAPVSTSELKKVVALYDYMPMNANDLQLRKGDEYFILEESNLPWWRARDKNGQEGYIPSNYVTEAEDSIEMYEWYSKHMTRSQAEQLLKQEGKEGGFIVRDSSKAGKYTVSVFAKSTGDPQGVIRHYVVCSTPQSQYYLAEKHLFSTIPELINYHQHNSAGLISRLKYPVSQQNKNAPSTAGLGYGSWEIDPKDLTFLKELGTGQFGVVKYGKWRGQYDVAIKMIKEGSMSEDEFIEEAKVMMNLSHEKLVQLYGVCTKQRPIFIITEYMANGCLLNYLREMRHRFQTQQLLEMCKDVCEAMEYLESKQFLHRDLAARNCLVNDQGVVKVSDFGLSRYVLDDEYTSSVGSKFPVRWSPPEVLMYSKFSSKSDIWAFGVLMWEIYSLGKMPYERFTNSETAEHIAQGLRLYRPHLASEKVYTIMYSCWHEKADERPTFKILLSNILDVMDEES

Binder	% activity [1]	% activity [2]	% activity [3]	% activity [4]	% activity [5]	% activity [6]	% activity [7]	% activity [8]	% activity [9]	% activity [10]	% activity [11]	% activity [12]	% activity [13]
B1	87%	93%	31%	75%	129%	73%	94%	33%	0%	102%	195%	0%	74%
B2	93%	98%	82%	82%	132%	82%	102%	75%	1%	107%	155%	40%	74%
